The values that follow come from publication PMC4622529.

Holding throughout (test): SPR
The target in assay [1] is mouse FcRn (FcRn/β2m heterodimer, soluble extracellular domain) (mouse) (UniProt Q61559).
Assay [2] deals with rat FcRn (FcRn/β2m heterodimer, soluble extracellular domain) (rat) (UniProt P13599).
Assay [3] concerns the target human IgG3 (human).
The target of assay [4] is human IgG4 (human).
The target in assay [5] is mouse IgG2a (mouse).
In assay [6] the target is trastuzumab hIgG1 AAA:N434H E:R heterodimer (human).
The target of assay [7] is trastuzumab hIgG1 AAA:N434Y E:R heterodimer (human).
In assay [8] the target is trastuzumab hIgG1 AAA:WT E:R heterodimer (human).
In assay [9] the target is trastuzumab hIgG1 I253A:WT E:R heterodimer (human).
Assay [10] has as its target trastuzumab hIgG1 N434H (homodimer) (human).
The target in assay [11] is trastuzumab hIgG1 N434Y (homodimer) (human).
Assay [12] deals with trastuzumab hIgG1 N434Y R arm (parental) (human).
Assay [13] deals with trastuzumab hIgG1 WT E arm (parental) (human).
Assay [14] has as its target trastuzumab hIgG1 WT R arm (parental) (human).
Assay [15] has as its target trastuzumab hIgG1 WT:WT E:R heterodimer (human).
For assay [16], the target named is trastuzumab hIgG1 wild type (homodimer) (human).
In assay [17] the target is trastuzumab hIgG1 N434Y (homodimer) (human). This is another data set of the same source.
In assay [18] the target is mouse FcRn (FcRn/β2m heterodimer, soluble extracellular domain) (mouse) (UniProt Q61559). This is another data set of the same source.
Assay [19] addresses rat FcRn (FcRn/β2m heterodimer, soluble extracellular domain) (rat) (UniProt P13599). The source holds these as a separate data set.
Assay [20] addresses mouse FcRn (FcRn/β2m heterodimer, soluble extracellular domain) (mouse) (UniProt Q61559). The source holds these as a separate data set.
The target in assay [21] is rat FcRn (FcRn/β2m heterodimer, soluble extracellular domain) (rat) (UniProt P13599). This is another data set of the same source.
Assay [22] concerns the target mouse FcRn (FcRn/β2m heterodimer, soluble extracellular domain) (mouse) (UniProt Q61559). The source holds these as a separate data set.
The target of assay [23] is rat IgG2a (panel of unrelated mAbs of subtype rIgG2a) (rat).
Assay [24] addresses cynomolgus monkey IgG1 (cynomolgus monkey).
Assay [25] deals with cynomolgus monkey IgG2 (cynomolgus monkey).
Assay [26] deals with human IgG1 (category of several hIgG1 molecules) (human).
In assay [27] the target is human IgG2 (category of several hIgG2 molecules) (human).
Assay [28] deals with mouse IgG1 (mouse).
The target of assay [29] is mouse IgG2b (mouse).
In assay [30] the target is mouse IgG3 (mouse).
For assay [31], the target named is rat IgG1 (rat).
Assay [32] addresses rat IgG2a (panel of unrelated mAbs of subtype rIgG2a) (rat). The source holds these as a separate data set.
Assay [33] addresses rat IgG2b (rat).
Assay [34] concerns the target rat IgG2c (rat).
For assay [35], the target named is rhesus monkey IgG1 (rhesus monkey).
The target in assay [36] is rhesus monkey IgG2 (rhesus monkey).

Several values for one entry are separate records, joined by “and”; a condition that tells them apart may be missing. Equal entries are not always repeated. Where two headings read alike, the source gives them in different places.

As to “trastuzumab hIgG1 wild type (homodimer) (antibody)”, the Kd (in general, the constant that tells how readily two partners part at equilibrium) in [1] amounted to 48 nM; in assay [2], 49 nM.
On to “mouse FcRn (FcRn/β2m heterodimer, soluble extracellular domain) (from UniProt Q61559;P01887) (receptor)”, for which the Kd in [3] is 230 nM and 353 nM and 328 nM; in assay [4] it was 116 nM and 197 nM and 183 nM; in assay [5] it was 490 nM and 931 nM; in assay [7], 0.47 nM; in assay [8], 58 nM; in assay [9], 58 nM. Besides, the equilibrium dissociation constant (Kd) in assay [11] was 0.47 nM; in assay [12], 0.47 nM; in [13], 58 nM; in [14], 58 nM; in assay [15], 58 nM; in [16], 58 nM. This molecule showed a Kd in assay [17] of 44.1 nM. In addition, the stoichiometry N (commonly the number of molecules, sites or subunits per partner or assembly) in [6] was 1 FcRn per IgG; in assay [7], 1 FcRn per IgG; in [8], 1 FcRn per IgG; in [10], 2 FcRn per IgG; in assay [11], 2 FcRn per IgG; in [16], 2 FcRn per IgG.
For “trastuzumab hIgG1 N434Y (homodimer) (antibody)”, the Kd in assay [18] is 36 nM; in assay [19], 460 nM; in [1] it was 0.292 nM; in assay [2], 3.3 nM.
For the molecule “trastuzumab hIgG1 AAA:WT E:R heterodimer (antibody)”, the Kd in assay [20] is 49 nM; in assay [21], 67 nM; in [1], 54 nM; in assay [2], 46 nM.
For the molecule “trastuzumab hIgG1 AAA:N434Y E:R heterodimer (antibody)”, the Kd was 0.35 nM in assay [20]; 3.5 nM in assay [21]; 66 nM in assay [22]; 50 nM and 52 nM in [18]; 0.28 nM in assay [1]; 2.7 nM in assay [2].
For “trastuzumab hIgG1 AAA:N434H E:R heterodimer (antibody)”, the Kd in assay [20] came out at 3.6 nM; in assay [21], 8 nM; in [1], 3.8 nM; in assay [2] it was 4.9 nM.
With “human FcRn (FcRn/β2m heterodimer, soluble extracellular domain) (from UniProt P55899;P61769) (receptor)”, the Kd was 585 nM and 898 nM in assay [3]; 717 nM and 973 nM in assay [4].
Turning to “trastuzumab hIgG1 N434H (homodimer) (antibody)”, the Kd in [1] turned out to be 3.7 nM; in assay [2], 5.4 nM.
As to “rat FcRn (FcRn/β2m heterodimer, soluble extracellular domain) (from UniProt P13599;P07151) (receptor)”, the Kd in assay [10] is 9.9 nM; in assay [11], 4.5 nM; in assay [16], 84 nM; in [17], 455 nM.
“cynomolgus monkey FcRn (FcRn/β2m heterodimer, soluble extracellular domain) (from UniProt Q8SPV9;Q8SPW0) (receptor)”: the Kd in [3] is 188 nM and 213 nM and 387 nM; in assay [4] it was 258 nM and 266 nM and 450 nM.

B1: rat FcRn (FcRn/β2m heterodimer, soluble extracellular domain) (receptor)
chain 1: AEPRLPLMYHLAAVSDLSTGLPSFWATGWLGAQQYLTYNNLRQEADPCGAWIWENQVSWYWEKETTDLKSKEQLFLEAIRTLENQINGTFTLQGLLGCELAPDNSSLPTAVFALNGEEFMRFNPRTGNWSGEWPETDIVGNLWMKQPEAARKESEFLLTSCPERLLGHLERGRQNLEWKEPPSMRLKARPGNSGSSVLTCAAFSFYPPELKFRFLRNGLASGSGNCSTGPNGDGSFHAWSLLEVKRGDEHHYQCQVEHEGLAQPLTVDL
chain 2: IQKTPQIQVYSRHPPENGKPNFLNCYVSQFHPPQIEIELLKNGKKIPNIEMSDLSFSKDWSFYILAHTEFTPTETDVYACRVKHVTLKEPKTVTWDRDM
Take B1: the Kd in [23] was 44 nM and 69 nM and 55 nM; in assay [24] it was 88 nM and 123 nM; in assay [25] it was 38 nM and 51 nM; in assay [26], 68 nM and 135 nM; in assay [27], 53 nM and 93 nM; in assay [3], 313 nM and 357 nM and 366 nM. The Kd in assay [4] was 123 nM and 149 nM and 145 nM; in [28], 501 nM and 567 nM; in [5], 97 nM and 150 nM; in [29] it was 332 nM and 368 nM; in assay [30] it was 183 nM; in assay [31] it was 285 nM and 329 nM. The dissociation constant Kd was 45 nM and 76 nM in [32]; 186 nM and 248 nM in assay [33]; 452 nM and 617 nM in [34]; 88 nM and 119 nM in assay [35]; 41 nM and 51 nM in assay [36]. Besides, the koff (in general, a measure of how fast the partners let go of each other) in [23] worked out at 0.0119 s⁻¹. In addition, the kon (in general, the rate constant with which the complex forms) in assay [23] was 220000 M⁻¹ s⁻¹.
